# Results published in the supplement of paper PMC7125110.
# ± gives the standard error. This sample holds only a part of the variants without activity.
# B1: glmS ribozyme (parent)
# chain: AUAAAAGCGCCAGAACUACAGAAAUGUAGUUGACGAGGAGGAGGUUUAUCGAAUUUUCGGCGGAUGCCUCCAAA
# Columns and labels:
# Conditions in all cases: with glucosamine-6-phosphate
# glucosamine-6-phosphate [1] = variants of: B1; test: self-cleavage kobs at 40 uM GlcN6P; higher = faster cleavage; RNA array
# In short: (§1)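 Weighted Michaelis–Menten fits across concentrations supplied kcat and KM, based on kobs from one- or two-exponential decay fits to normalised per-tile medians. The data came from barcoded ribozyme variants transcribed in situ by E. coli RNA polymerase on sequenced MiSeq chips and tracked at 37 °C by a hybridised Cy3 probe. Glucosamine-6-phosphate (40 μM to 10 mM) in HEPES/KCl/Mg(OAc)2 buffer was flowed in.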
# glucosamine-6-phosphate [2] = variants of: B1; test: self-cleavage kobs at 160 uM GlcN6P; higher = faster cleavage; RNA array
# In short: as §1
# glucosamine-6-phosphate [3] = variants of: B1; test: self-cleavage kobs at 640 uM GlcN6P; higher = faster cleavage; RNA array
# In short: as §1
# glucosamine-6-phosphate [4] = variants of: B1; test: self-cleavage kobs at 10000 uM GlcN6P; higher = faster cleavage; RNA array
# In short: as §1
# glucosamine-6-phosphate [5] = variants of: B1; test: self-cleavage kobs at 2500 uM GlcN6P; higher = faster cleavage; RNA array
# In short: as §1
Variant,self-cleavage kobs at 40 uM GlcN6P (glucosamine-6-phosphate [1]) [s⁻¹],self-cleavage kobs at 160 uM GlcN6P (glucosamine-6-phosphate [2]) [s⁻¹],self-cleavage kobs at 640 uM GlcN6P (glucosamine-6-phosphate [3]) [s⁻¹],self-cleavage kobs at 10000 uM GlcN6P (glucosamine-6-phosphate [4]) [s⁻¹],self-cleavage kobs at 2500 uM GlcN6P (glucosamine-6-phosphate [5]) [s⁻¹]
C10G G44A,< 1e-05,< 1e-05,< 1e-05,< 1e-05,–
A6U C11U G26U U56C,< 1e-05,–,–,–,–
C8A U30G U31C,< 1e-05,–,–,< 1e-05,< 1e-05
A14U G32C U45A U47G,< 1e-05,–,–,3.36e-05 ± 1.4e-05,–
A6C G9C,< 1e-05,< 1e-05,< 1e-05,< 1e-05,< 1e-05
U47C U57G,< 1e-05,–,–,–,–
C16U U55A C67A,0.000154 ± 5.7e-05,–,–,0.00183 ± 0.00074,–
G7C C16G C61A,< 1e-05,–,< 1e-05,< 1e-05,< 1e-05
G66A C71U,0.000673 ± 0.00012,–,0.00361 ± 0.0008,0.0215 ± 0.007,–
C34A A64G,< 1e-05,< 1e-05,–,–,< 1e-05
G51C C67A,< 1e-05,< 1e-05,< 1e-05,–,< 1e-05
A14U G37A G43U C68G C70G,< 1e-05,–,–,–,–
A12G G13U U31C U49G,< 1e-05,–,–,–,–
U30G C61G,< 1e-05,–,–,< 1e-05,–
G9A A12U C61A,< 1e-05,–,–,–,–
C61U C67G C68G,4.73e-05 ± 1.6e-05,–,–,–,–
C10U A39G C71A,< 1e-05,–,–,–,–
A6G A48U,< 1e-05,< 1e-05,< 1e-05,< 1e-05,< 1e-05
A36U C50G A64G C70G,0.000457 ± 0.00012,–,–,0.000194 ± 4.9e-05,0.000298 ± 0.00013
C34G G59A G60U,< 1e-05,< 1e-05,< 1e-05,< 1e-05,–
G44C G60A U69G,< 1e-05,–,–,–,–
C11A C61U C70U,< 1e-05,–,–,< 1e-05,–
G43C G62C,< 1e-05,< 1e-05,< 1e-05,–,< 1e-05

Variant,self-cleavage kobs at 40 uM GlcN6P (glucosamine-6-phosphate [1]) [s⁻¹],self-cleavage kobs at 160 uM GlcN6P (glucosamine-6-phosphate [2]) [s⁻¹],self-cleavage kobs at 640 uM GlcN6P (glucosamine-6-phosphate [3]) [s⁻¹],self-cleavage kobs at 10000 uM GlcN6P (glucosamine-6-phosphate [4]) [s⁻¹],self-cleavage kobs at 2500 uM GlcN6P (glucosamine-6-phosphate [5]) [s⁻¹]
G43C G62U,< 1e-05,< 1e-05,< 1e-05,< 1e-05,< 1e-05
C50G A53U G66A C67A,0.000122 ± 4.6e-05,–,–,0.000135 ± 5.1e-05,–
G7A G41C,< 1e-05,< 1e-05,< 1e-05,–,< 1e-05
A12G U46C U49G C70U,< 1e-05,–,–,3.44e-05 ± 1.4e-05,–
G29A A53U C58G,< 1e-05,–,–,5.28e-05 ± 2.2e-05,–
U69C C71A,5.28e-05 ± 2.1e-05,0.000113 ± 1.9e-05,0.000587 ± 8.4e-05,–,0.000478 ± 9.3e-05
C8U A15G,< 1e-05,< 1e-05,< 1e-05,< 1e-05,–
C8U A15C,< 1e-05,< 1e-05,< 1e-05,–,–
C34G A52C,< 1e-05,< 1e-05,< 1e-05,< 1e-05,< 1e-05
G9C U55G,< 1e-05,–,–,< 1e-05,–
G7U U46G,< 1e-05,< 1e-05,< 1e-05,< 1e-05,< 1e-05
G9U C34A,< 1e-05,< 1e-05,< 1e-05,< 1e-05,–
G29A A36G,< 1e-05,< 1e-05,< 1e-05,–,< 1e-05
C10A C16A G51U C68G C71A,7.7e-05 ± 2e-05,–,0.00052 ± 0.00016,8.53e-05 ± 1.6e-05,–
U46G G60A,< 1e-05,< 1e-05,< 1e-05,–,–
A14G A48C C68A,< 1e-05,< 1e-05,–,< 1e-05,–
G38C U69C,< 1e-05,< 1e-05,–,< 1e-05,–
G9A G40U C50G,< 1e-05,–,–,–,–
U30G G44U U45C,< 1e-05,–,–,< 1e-05,–
G32A A33U A39G C61G A64C C68A,< 1e-05,–,–,< 1e-05,–
C10G U56G C68A,< 1e-05,–,–,–,–
C10U C11G C16A C50G,9.19e-05 ± 2.5e-05,–,0.000376 ± 9.9e-05,8e-05 ± 2.2e-05,0.000168 ± 3.4e-05
G35A A52G,< 1e-05,–,–,< 1e-05,< 1e-05

Variant,self-cleavage kobs at 40 uM GlcN6P (glucosamine-6-phosphate [1]) [s⁻¹],self-cleavage kobs at 160 uM GlcN6P (glucosamine-6-phosphate [2]) [s⁻¹],self-cleavage kobs at 640 uM GlcN6P (glucosamine-6-phosphate [3]) [s⁻¹],self-cleavage kobs at 10000 uM GlcN6P (glucosamine-6-phosphate [4]) [s⁻¹],self-cleavage kobs at 2500 uM GlcN6P (glucosamine-6-phosphate [5]) [s⁻¹]
G44A A48U U69G,< 1e-05,–,–,–,< 1e-05
G9A C50G,0.000112 ± 1.8e-05,0.000137 ± 3.9e-05,0.00113 ± 0.00048,9.95e-05 ± 1.1e-05,–
C16U C50G,4.26e-05 ± 1.3e-05,3.28e-05 ± 1.4e-05,4.35e-05 ± 1.3e-05,–,–
C34G C50G C68A C70U,8.07e-05 ± 2.3e-05,–,–,5.45e-05 ± 1.1e-05,0.000366 ± 0.00013
C11G U31A C50G U57G,0.000129 ± 3.6e-05,–,–,5.06e-05 ± 1.6e-05,7.48e-05 ± 3e-05
A15C A53U G62A,< 1e-05,–,–,< 1e-05,< 1e-05
A36C G43A U55A C71U,< 1e-05,–,< 1e-05,< 1e-05,< 1e-05
A6G G43C,< 1e-05,< 1e-05,< 1e-05,< 1e-05,< 1e-05
A36C G60U C67A,< 1e-05,–,–,< 1e-05,–
G32A U47A,0.000103 ± 2.6e-05,8.74e-05 ± 1.8e-05,–,0.00237 ± 0.00046,0.000897 ± 0.00019
C61A A64C C71A,< 1e-05,–,–,< 1e-05,–
C10G A33U G35U G60U,< 1e-05,–,–,< 1e-05,–
A12C U56A A64C,< 1e-05,–,9.73e-05 ± 3.4e-05,–,–
A33G A52U,< 1e-05,–,< 1e-05,< 1e-05,–
A33C A36C,< 1e-05,–,–,–,< 1e-05
C11U G29U C34U A53U U56A,< 1e-05,–,–,–,< 1e-05
A12C A36G,< 1e-05,< 1e-05,< 1e-05,< 1e-05,< 1e-05
A42C U65G,< 1e-05,< 1e-05,< 1e-05,–,–
G13C G35U,< 1e-05,< 1e-05,–,< 1e-05,–
A14U G35U G44C U57C,< 1e-05,–,–,< 1e-05,< 1e-05
A33G C61G A64C,< 1e-05,–,–,< 1e-05,–
A52U G63U,< 1e-05,< 1e-05,–,< 1e-05,–
G40A G63C,< 1e-05,–,< 1e-05,–,–

Variant,self-cleavage kobs at 40 uM GlcN6P (glucosamine-6-phosphate [1]) [s⁻¹],self-cleavage kobs at 160 uM GlcN6P (glucosamine-6-phosphate [2]) [s⁻¹],self-cleavage kobs at 640 uM GlcN6P (glucosamine-6-phosphate [3]) [s⁻¹],self-cleavage kobs at 10000 uM GlcN6P (glucosamine-6-phosphate [4]) [s⁻¹],self-cleavage kobs at 2500 uM GlcN6P (glucosamine-6-phosphate [5]) [s⁻¹]
A6G G7A G51C,< 1e-05,–,–,< 1e-05,–
G38A U49G A52U,< 1e-05,–,–,–,–
A48U A64C,< 1e-05,< 1e-05,< 1e-05,–,–
C8A G40A G63A,< 1e-05,–,–,< 1e-05,–
C8U U47A,< 1e-05,< 1e-05,< 1e-05,< 1e-05,–
G60U U69C,< 1e-05,< 1e-05,< 1e-05,< 1e-05,–
A6G G43U C67U,< 1e-05,< 1e-05,< 1e-05,< 1e-05,–
C8G A15U,< 1e-05,< 1e-05,< 1e-05,< 1e-05,< 1e-05
G13A U31A G59C C70A,< 1e-05,–,–,–,–
C61U U65C,< 1e-05,–,< 1e-05,< 1e-05,< 1e-05
U55G U56A,0.000287 ± 6.6e-05,–,0.00208 ± 0.00047,0.0131 ± 0.0051,0.00834 ± 0.0016
A15G C34U,< 1e-05,< 1e-05,< 1e-05,< 1e-05,< 1e-05
G9C G41U C50A,< 1e-05,–,–,–,–
C8U G32C G60U,< 1e-05,< 1e-05,< 1e-05,< 1e-05,< 1e-05
G60A C61G,< 1e-05,–,–,< 1e-05,< 1e-05
A53U G59C,< 1e-05,< 1e-05,< 1e-05,< 1e-05,< 1e-05
A48C C61U C67G,< 1e-05,–,< 1e-05,< 1e-05,–
A42C U57A,< 1e-05,–,< 1e-05,< 1e-05,< 1e-05
U31G G32C G38U G43U G59A G63A U69A,< 1e-05,–,–,–,–
C8A A12G,< 1e-05,< 1e-05,< 1e-05,< 1e-05,< 1e-05
